Assay results: publication PMC11140114 (2024)
Each block holds one binder with its values, some of them ahead of it.

Target: recombinant human dynamin-related protein 1 (Drp1), isoform 1 (human, UniProt O00429 1-736)
Assay: BLI

Chain of recombinant human dynamin-related protein 1 (Drp1), isoform 1 (O00429 whole entry, canonical isoform): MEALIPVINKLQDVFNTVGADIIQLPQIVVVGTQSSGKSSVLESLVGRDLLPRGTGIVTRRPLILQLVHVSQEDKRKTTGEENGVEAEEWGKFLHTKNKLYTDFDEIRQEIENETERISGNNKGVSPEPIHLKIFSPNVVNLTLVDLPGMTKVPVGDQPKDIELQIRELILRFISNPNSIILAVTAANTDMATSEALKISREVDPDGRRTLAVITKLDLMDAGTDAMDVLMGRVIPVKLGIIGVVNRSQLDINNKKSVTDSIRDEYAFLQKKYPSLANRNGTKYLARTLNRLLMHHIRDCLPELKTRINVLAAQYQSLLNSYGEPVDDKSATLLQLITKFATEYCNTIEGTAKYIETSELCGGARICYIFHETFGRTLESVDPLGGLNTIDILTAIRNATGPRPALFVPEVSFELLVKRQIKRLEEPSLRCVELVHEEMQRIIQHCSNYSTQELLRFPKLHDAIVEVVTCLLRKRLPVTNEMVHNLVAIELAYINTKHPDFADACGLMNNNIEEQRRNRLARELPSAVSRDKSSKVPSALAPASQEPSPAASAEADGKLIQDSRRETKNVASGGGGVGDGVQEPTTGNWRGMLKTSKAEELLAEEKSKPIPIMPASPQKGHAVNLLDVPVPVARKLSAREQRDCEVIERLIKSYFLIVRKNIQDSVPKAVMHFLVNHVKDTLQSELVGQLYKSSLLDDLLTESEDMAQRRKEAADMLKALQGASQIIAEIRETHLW

- koff: 0.000117 s⁻¹
B1: Drp1-specific nanobody D7 (VHH)
VHH: QVQLVESGGGLVQPGGSLRLSCVASGFDFSTYSMTWHRQVLGKERELVASITPGGSRTNVADSVKGRFTISRDNAKNMLYLQMDRLKPEDTGMYYCAQGGYYAEPDYWGKGTRVTVSS
modifications: biotinylated for BLI (site not stated); covalently immobilised on NHS-activated sepharose via primary amino groups of accessible lysines for the nanotrap

- koff: 0.000227 s⁻¹
B2: Drp1-specific nanobody D63 (VHH)
VHH: QVQLVESGGDLVQPGGSLKLSCAVSGVSDSLSSFYLMAWHRQAPGKQREMIADIVSGKATYADSVKGRFTISRDNAENTAYLQMNSLKPEDTAVYYCNVLIQNRSTFQSYWGQGTQVTVSS
modifications: biotinylated for BLI (site not stated); covalently immobilised on NHS-activated sepharose via primary amino groups of accessible lysines for the nanotrap
